According to the supplement of paper PMC9170038:

Test system: MS2 coat protein
Assay: apparent KD of MS2 coat protein; designed switch direction (-1 OFF switch, 1 ON switch): -1; higher = weaker reporter binding
In short: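 Stalled E. coli RNA polymerase transcribed designed RNA switches on Illumina chips, which were then titrated with SNAP-549-labelled MS2 coat protein, doubling from 0.7 or 1.5 nM to 3 µM. Steps lasted from 0.8–1.5 h at the lowest concentration to 10–20 min at the highest. The apparent KD is each design's median over clusters of curve-fitted normalised fluorescence.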

[1] = input ligand: microRNA oligo, concentration not stated
[2] = Eterna round: R95, input ligand: FMN 200 uM
[3] = Eterna round: R95, input ligand: microRNA oligo, concentration not stated
[4] = Eterna round: R95, input ligand: none

Row | Sequence | apparent KD of MS2 coat protein (input ligand: FMN 200 uM) | apparent KD of MS2 coat protein [1] | apparent KD of MS2 coat protein (input ligand: none) | apparent KD of MS2 coat protein [2] | apparent KD of MS2 coat protein [3] | apparent KD of MS2 coat protein [4]
1 | GCAGCAAAUUCCACUAAAAUCACAUGAGGAUCACCCAUGUCUCAGGAUAUGGUCUGGAUUACAGGCCAGAAGGGAGAAAGCUGC [Eli exng3 - 057] (Eterna round: R96, puzzle: Exclusion NG 3) | 25.8 nM | 23.6 nM | 27.6 nM | – | – | –
2 | GCAGCAACUCUAACUAACUAAACAUGAGGAUCACCCAUGUCUCAGGAUAUGGUCUGGAUUACAGGCCAGAAGGGAGAAAGCUGC [Eli exng3 - 039] (Eterna round: R96, puzzle: Exclusion NG 3) | 12.6 nM | 10.9 nM | 14.5 nM | – | – | –
3 | GCAGCAACUCUAAUCAAACUAACAUGAGGAUCACCCAUGUCUCAGGAUAUGGUCUGGAUUACAGGCCAGAAGGGAGAAAGCUGC [Eli exng3 - 049] (Eterna round: R96, puzzle: Exclusion NG 3) | 9.04 nM | 10.4 nM | 14.8 nM | – | – | –
4 | GCAGCAUAGAUGAAAGUCUGAUACAUGAGGAUCACCCAUGUACAGGAUAUGGUCUGGAUUACAGGCCAGAAGGGUACAAGCUGC [Eli exng3 - 013] (Eterna round: R96, puzzle: Exclusion NG 3) | 14.4 nM | 10.6 nM | 12.8 nM | – | – | –
5 | GCAGCAUAGUGUAAUAAACACAUACAUGAGGAUCACCCAUGUGAGGAUAUGGACUGGAUUACAGUCCAGAAGGCACAAAGCUGC [Zipper Style 1] (Eterna round: R96, puzzle: Exclusion NG 3) | 18.7 nM | 15.9 nM | 17.8 nM | – | – | –
6 | GCAGCAUAGUUAACAGACUGUUACAUGAGGAUCACCCAUGUACAGGAUAUGGUCUGGAUUACAGGCCAGAAGGGUACAAGCUGC [Eli exng3 - 019] (Eterna round: R96, puzzle: Exclusion NG 3) | 10.1 nM | 8.94 nM | 11.6 nM | – | – | –
7 | GCAGCAUAGUUUACUAACUGUUACAUGAGGAUCACCCAUGUUCAGGAUAUGGUCUGGAUUACAGGCCAGAAGGGAACAAGCUGC [Eli exng3 - 026] (Eterna round: R96, puzzle: Exclusion NG 3) | 7.64 nM | 8.42 nM | 11.3 nM | – | – | –
8 | GCAGCAUAGUUUACUAGCUGUUACAUGAGGAUCACCCAUGUUCAGGAUAUGGUCUGGAUUACAGGCCAGAAGGGAACAAGCUGC [Eli exng3 - 029] (Eterna round: R96, puzzle: Exclusion NG 3) | – | 7.99 nM | – | – | – | –
9 | GCAGCAUAGUUUACUGACUGUUACAUGAGGAUCACCCAUGUUCAGGAUAUGGUCUGGAUUACAGGCCAGAAGGGAACAAGCUGC [Eli exng3 - 030] (Eterna round: R96, puzzle: Exclusion NG 3) | 9.17 nM | 10.9 nM | 10.6 nM | – | – | –
10 | GCAGCGUAUGUAGGAUAUCGGUCAGUUUCUGAUCGAGAAGGACAUGAGGAUCACCCAUGUAAAUUACCGACUUUGUCGGGCUGC [JL ENG1 3.67] (Eterna round: R96, puzzle: Exclusion NG 1) | 16.3 nM | 14.7 nM | 16.3 nM | – | – | –
11 | GCAGCUAAUCGAGGAUAUCAGCACGAUUAGUGCUGAGAAGGCGACAUGAGGAUCACCCAUGUGAUCAAUUAAUAUUAAUGCUGC [ENG1/11-A1] (Eterna round: R96, puzzle: Exclusion NG 1) | 774 nM | 295 nM | 505 nM | – | – | –
12 | GCAGCUAAUCGAGGAUAUCAGCACGUUUAGUGCUGAGAAGGCGACAUGAGGAUCACCCAUGUGAUCAAUUAAUAUUAAUGCUGC [ENG1/11-A2] (Eterna round: R96, puzzle: Exclusion NG 1) | 1270 nM | 344 nM | 659 nM | – | – | –
13 | GCAGCUUAGUUAACAGACUGUUACAUGAGGAUCACCCAUGUGCAGGAUAUGGUCUGGAUUACAGGCCAGAAGGGUACAAGCUGC [Eli exng3 - 016] (Eterna round: R96, puzzle: Exclusion NG 3) | 12.8 nM | 9.37 nM | 14.2 nM | – | – | –
14 | GCAGGAUAAGUCAGGAUAUACCUAUGGAUACAUAGGUAGAAGGGACAUGAGGAUCACCCAUGUGCCUCACCUGC [Fiskers BMX 4 - 57] (puzzle: Brourd's mod of Exclusion 4) | – | – | – | 48.7 nM | 16.6 nM | 16.1 nM
15 | GCAGGUUAAGUAAGGAUAUACCUCUGGAAACAGAGGUAGAAGGUACAUGAGGAUCACCCAUGUUUCUCUUUUGC [Mod of Eli 5 - Jieux - Brourd's mod of Exclusion 4] (Eterna round: R97, puzzle: Brourd's mod of Exclusion 4) | 24.8 nM | – | 16 nM | – | – | –
16 | GCAGGUUAAGUCAGGAUAUACCUAUGGAUACAUAGGUAGAAGGGACAUGAGGAUCACCCAUGUGACUCGCCUGC [Fiskers BMX 4 - 61] (puzzle: Brourd's mod of Exclusion 4) | – | – | – | – | 25.6 nM | –
17 | GCAUCCAAUGUGAGGAUAUACCUCUGGAUACAUAGGUAGAAGGCACAUGAGGAUCACCCAUGUCCUAAGGAUGC [Fiskers BMX 4 - 28] (puzzle: Brourd's mod of Exclusion 4) | – | – | – | – | 75 nM | –

Row | Sequence | apparent KD of MS2 coat protein (input ligand: FMN 200 uM) | apparent KD of MS2 coat protein [1] | apparent KD of MS2 coat protein (input ligand: none) | apparent KD of MS2 coat protein [2] | apparent KD of MS2 coat protein [3] | apparent KD of MS2 coat protein [4]
18 | GCAUCCAAUGUGAGGAUAUACCUCUGGAUACAUAGGUAGAAGGCACAUGAGGAUCACCCAUGUUCCUAGGAUGC [Fiskers BMX 4 - 31] (puzzle: Brourd's mod of Exclusion 4) | – | – | – | – | 32.9 nM | –
19 | GCAUCGUGAGGAUAUACAUGAGGAUCACCCAUGUGGCGGAUCUACCAGCCAGCAAAAUGUAGAAGGCAUUGCUU [Eternabot (L2) Solution 19] (Eterna round: R97, puzzle: Exclusion 3) | 123 nM | – | 142 nM | – | – | –
20 | GCAUCUCAUGUCAGGAUAUGCUGUACCUUGGUACAGCAGAAGGGACAUGAGGAUCACCCAUGUGCCUAAGAUGC [JL-BMX4-4.12] (Eterna round: R97, puzzle: Brourd's mod of Exclusion 4) | 1270 nM | – | 254 nM | – | – | –
21 | GCAUCUCGCAAGGGUACCCACAUGAGGAUCACCCAUGUGAUGAUAAACAGGUUUCGUGCGUCCGUUUUAUCCACUUU [Eternabot (L2) Solution 18] (Eterna round: R97, puzzle: Sensor, turn-off variant 1) | 737 nM | – | 865 nM | – | – | –
22 | GCAUGCUAUGUCAGGAUAUACCUCUGGAUACAUAGGUAGAAGGGACAUGAGGAUCACCCAUGUCCUAAACAUGC [Fiskers BMX 4 - 26] (puzzle: Brourd's mod of Exclusion 4) | – | – | – | – | 11.4 nM | –
23 | GCAUGGAAAGUGAGGAUAUACCACUGGAUACAGUGGUAGAAGGCACAUGAGGAUCACCCAUGUUUCUACCAUGC [Fiskers BMX 4 - 40] (puzzle: Brourd's mod of Exclusion 4) | – | – | – | – | 12.7 nM | –
24 | GCAUGGCGAGGAUAUACAUGAGGAUCACCCAUGUGAGAAGAAUAAGUGAGGAAGAAAAGUAGAAGGCGCUGUGG [Mat - Exclusion 3 - Mod of Salish D63] (puzzle: Exclusion 3) | – | – | – | 128 nM | 51.5 nM | 85 nM
25 | GCAUGGCGAGGAUAUACAUGAGGAUCACCCAUGUGAGAAUAAGAAGUGAGGAAGAAAAGUAGAAGGCGCUGUGG [Mat - Exclusion 3 - Mod of Salish D65] (puzzle: Exclusion 3) | – | – | – | 173 nM | 73.8 nM | 84.5 nM
26 | GCAUGUCUUAAGGAUAUGCUUAGGCGUGAGCCGGCAGAAGGUAAGACAUGAGGAUCACCCAUGUUUUCCUAAAA [jl-ex6-4.31 ViennaUCT mod] (Eterna round: R97, puzzle: Exclusion 6) | 171 nM | – | 24.4 nM | – | – | –
27 | GCCAACGACUGAGGAUAUGCUUAUAGACAUGAGGAUCACCCAUGUAAAUGGGACAUGUCAAACCAGCAGAAGGCAGGACCUGGC [Inteinrais] (Eterna round: R96, puzzle: Exclusion NG 2) | 100 nM | 57.5 nM | 70.3 nM | – | – | –
28 | GCCACAGCAGGAUAUUCAAUAAUUCACAUGAGGAUCACCCAUGUCGAGCGAAAGCUCGAGGGAGAAGGGCUGUGGC [Mat - Exclusion 5 - Eli mod - D88] (puzzle: Exclusion 5) | – | – | – | – | 34.4 nM | –
29 | GCCACGGGAGGAUAUACAUAGGAGUUCUCUUCCUGCUCGAGACAUGAGGAUCACCCAUGUAGAAGGCCCGCUGC [Eternabot (L2) Solution 17] (Eterna round: R97, puzzle: Exclusion 2) | 62.2 nM | – | 385 nM | – | – | –
30 | GCCACGGGAGGAUAUCGCGGAGGCUACAUGAGGAUCACCCAUGUCUGGUCUUCGUGCUCCCGAGAAGGCCCGUCAG [Bivemaus] (puzzle: Exclusion 5) | – | – | – | – | 13.2 nM | –
31 | GCCAGAGCAGGAUAUCUAAUAUAUCACAUGAGGAUCACCCAUGUCCAGCGAAAGCUGGAGGGAGAAGGGCUCUGGC [Fiskers Ex 5 - 19] (puzzle: Exclusion 5) | – | – | – | 53.6 nM | 98.4 nM | 106 nM
32 | GCCAGAGCAGGAUAUCUAAUGUAUCACAUGAGGAUCACCCAUGUCCAGCGAAAGCUGGAGGGAGAAGGGCUCUGGC [Fiskers Ex 5 - 20] (puzzle: Exclusion 5) | – | – | – | 49.9 nM | 105 nM | 106 nM
33 | GCCAGAGCAGGAUAUUCAAUAAUCCACAUGAGGAUCACCCAUGUCUAGCGAAAGCUAGAGGGAGAAGGGCUCUGGC [Mat - Exclusion 5 - Eli mod - D90] (puzzle: Exclusion 5) | – | – | – | – | 57.2 nM | –
